# Measurements taken from patent US20130288979A1 (CENTRE NATIONAL DE LA RECHERCHE SCIENTIFIQUE CNRS, published 2013).
# Non-standard residues stand in square brackets, D forms with d. No end group written: not given here. Ahx = NCCCCCC(=O)O
# B1: ncDAXXp (peptide)
# peptide: AKLYVYINELCTVLK
# notes: Negative-control DAXX 15mer; the text uses it as Tat-ncDAXXp in the cell assays; also called circled spot at the start of row 41 of the DAXX pepscan
# B2: Tat-DAXXp (peptide)
# peptide: GRKKRRQRRRPPQKKSRKEKKQTGSGPLG-NH2
# notes: Conjugate of the Tat cell penetrating peptide (N-terminal) and DAXXp
# B3: Pip2b-DAXXp (peptide)
# peptide: R[Ahx]RR[Ahx]RR[Ahx]RIHILFQN[dR]RMKWHKKKSRKEKKQTGSGPLG-NH2
# modifications: not fully specified
# notes: 39 residues; holds non-natural residues in the Pip2b part
# B4: mDAXXp (peptide)
# peptide: KRFRKEKKQLGSGLLG-NH2
# modifications: not fully specified; printed as KRFRKEKKQLGSGLLG-NH2
# notes: also called mouse homolog of human DAXXp; murine DAXXp
# How the values were obtained:
# [1] = target: T1, His-tagged intracellular region of Fas receptor (UniProt P25445 191-335, limits assumed); test: SPR (Biacore), mean of three experiments ± SD
# T1 construct: domain: intracellular region; Bought reagent (Sigma); also called intra-cellular region of the Fas receptor (Sigma); not shown: His tag
# T1 sequence (looked up): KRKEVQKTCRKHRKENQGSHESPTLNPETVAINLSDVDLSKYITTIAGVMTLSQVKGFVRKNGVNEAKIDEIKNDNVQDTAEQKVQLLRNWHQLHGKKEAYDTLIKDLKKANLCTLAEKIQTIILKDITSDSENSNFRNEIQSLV
# Protocol: Additionally, the potential interaction of the fragments with the intracellular region of the Fas receptor was cross-validated by measuring the binding affinities (Kd) using the surface plasmon resonance (SPR) technique (Biacore Life Science, Sweden).
# All experiments are performed on a Biacore instrument. For each condition, the mean value of three independent experiments and the corresponding standard deviation are plotted.
# [2] = target: T1, His-tagged intracellular region of Fas …; test: SPOT pepscan of DAXX (15mers, shift 3) on membrane, probed with His-tagged Fas intracellular region, anti-His(mouse)/anti-mouse-HRP, enzyme-linked blot
Binder,Kd [1] [µM],binding result [2]
KKSRKEKKQTGSGPLG-NH2 (also called DAXX peptide) [DAXXp],333,–
B1,–,no binding
B2,13,–
B3,0.7,–
B4,252,–
